Drawing on US20100111852A1 (FORERUNNER PHARMA RESEARCH, published 2010), this text covers X geometric mean for 6 molecules.

Changes are numbered by the printed parent chain.

Assay [1] has as its target T1, human Claudin 3 (human, UniProt O15551 1-220).
T1 construct: forced expression in DG44 or Ba/F3 cells, or endogenous on MCF7 cells; four-transmembrane tight junction protein; also called hCLDN3; hCLN3
T1 sequence: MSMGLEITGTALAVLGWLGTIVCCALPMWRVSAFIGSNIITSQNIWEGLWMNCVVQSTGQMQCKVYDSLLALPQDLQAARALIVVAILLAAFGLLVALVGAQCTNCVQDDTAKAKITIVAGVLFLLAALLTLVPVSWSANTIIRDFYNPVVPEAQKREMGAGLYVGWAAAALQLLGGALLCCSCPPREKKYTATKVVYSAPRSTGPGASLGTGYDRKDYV
Briefly: flow cytometry, MCF7 cells (endogenous Claudin 3), 5 ug/mL antibody. The procedure: (§1) A monoclonal antibody was added to the respective forced expression cells, and then incubated at 4° C. for 30 minutes. After incubation, the cells were washed once with a PBS solution containing 1% fetal bovine serum, then a 150-fold dilution of an FITC-goat anti-mouse IgG (H+L) antibody (Beckman Coulter) was added, and this was incubated at 4° C. for 30 minutes. The amount of antibodies bound per cell was measured using FACSCalibur, and the X geometric mean value, which is the geometric mean of the cell fluorescence intensity, was calculated using the accessory CellQuest Pro analysis software of FACSCalibur.
(§2) The affinity of the antibodies to the MCF7 breast cancer cell line (ATCC, HTB-22), which endogenously expresses Claudin 3, was evaluated by the flow cytometry method.
On the technique in general: In flow cytometry, cells or beads pass a laser one at a time.

In assay [2] the target is T1, human Claudin 3. Put plainly: flow cytometry, hCLDN3/Ba/F3 cells, 2 ug/mL antibody. The method, then:
as §1
(§3) The cross reactivity for human Claudin 3, human Claudin 1, human Claudin 4, human Claudin 6, and mouse Claudin 3 forcedly expressed in Ba/F3 was evaluated using at a final antibody concentration of 2 μg/mL.

Assay [3] concerns the target T1, human Claudin 3. Put plainly: flow cytometry, hCLDN3/DG44 cells, 0.1 ug/mL antibody.
For a further assay, the target named is T2, mouse Claudin 3 (mouse, UniProt Q9Z0G9 1-219).
T2 construct: whole, on cells; also called mCLDN3; mCLN3
T2 sequence (looked up): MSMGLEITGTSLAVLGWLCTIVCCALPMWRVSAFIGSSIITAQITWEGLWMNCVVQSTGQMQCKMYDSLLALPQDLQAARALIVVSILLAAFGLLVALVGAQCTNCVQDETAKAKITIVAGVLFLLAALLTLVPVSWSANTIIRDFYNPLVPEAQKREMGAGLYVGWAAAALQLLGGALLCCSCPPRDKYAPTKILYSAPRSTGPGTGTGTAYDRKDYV
Briefly: flow cytometry, mCLDN3/Ba/F3 cells, 2 ug/mL antibody. The method, then:
as §1, §3

The target in assay [4] is T1, human Claudin 3. Put plainly: flow cytometry, MCF7 cells (endogenous Claudin 3), 1 ug/mL antibody. The procedure:
as §1, §2

Assay [5] deals with T1, human Claudin 3. Put plainly: flow cytometry, hCLDN3/DG44 cells, 5 ug/mL antibody.
In assay [6] the target is T3, human Claudin 4 with C-terminal FLAG tag (human, UniProt O14493 1-209).
T3 construct: whole, on cells; forced expression in Ba/F3 cells; also called hCLDN4; hCLN4
T3 sequence (looked up): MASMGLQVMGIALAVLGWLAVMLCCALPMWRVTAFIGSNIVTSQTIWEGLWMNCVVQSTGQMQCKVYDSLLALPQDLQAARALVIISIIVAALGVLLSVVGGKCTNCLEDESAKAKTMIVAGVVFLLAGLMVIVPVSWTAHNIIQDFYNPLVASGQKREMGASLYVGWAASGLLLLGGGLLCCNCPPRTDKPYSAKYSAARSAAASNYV
Briefly: flow cytometry, hCLDN4/Ba/F3 cells, 2 ug/mL antibody. The method, then:
as §1, §3

The target of assay [7] is T4, human Claudin 6 with C-terminal FLAG tag (human, UniProt P56747 1-220).
T4 construct: whole, on cells; forced expression in Ba/F3 cells; also called hCLDN6; hCLN6
T4 sequence (looked up): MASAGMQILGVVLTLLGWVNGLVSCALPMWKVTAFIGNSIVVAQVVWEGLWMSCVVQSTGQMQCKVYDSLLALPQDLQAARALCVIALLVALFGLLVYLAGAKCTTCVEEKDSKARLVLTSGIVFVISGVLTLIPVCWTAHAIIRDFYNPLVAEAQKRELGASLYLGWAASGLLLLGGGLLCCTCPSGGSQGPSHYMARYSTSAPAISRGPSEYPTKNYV
Put plainly: flow cytometry, hCLDN6/Ba/F3 cells, 2 ug/mL antibody. The method, then:
as §1, §3

The target of assay [8] is T1, human Claudin 3. Put plainly: flow cytometry, hCLDN3/DG44 cells, 1 ug/mL antibody.
Assay [9] concerns the target T5, human Claudin 1 with C-terminal FLAG tag (human, UniProt O95832 1-211).
T5 construct: whole, on cells; forced expression in Ba/F3 cells; also called hCLDN1; hCLN1
T5 sequence (looked up): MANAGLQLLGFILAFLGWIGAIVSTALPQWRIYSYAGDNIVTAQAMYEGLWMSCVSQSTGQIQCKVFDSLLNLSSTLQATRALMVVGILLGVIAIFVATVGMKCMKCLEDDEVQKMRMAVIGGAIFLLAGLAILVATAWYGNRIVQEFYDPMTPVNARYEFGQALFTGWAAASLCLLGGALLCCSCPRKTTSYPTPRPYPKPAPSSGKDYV
Briefly: flow cytometry, hCLDN1/Ba/F3 cells, 2 ug/mL antibody. The method, then: as §1, §3

B1: CDN35 (antibody, V domains shown)
VH: EVQLQQSGPELVKPGASVKMSCKASGYTFTDYYMNWVKQSHGKSLEWIGRVNPSNGGTSYNQKFKGKATLTVDKSLSTAYMQLNSLTSEDSAVYYCARGLAYYSNSFTYWGQGTLVTVSA
VL: KIVLTQSPASLAVSLRQRATISCRASESVDSYGNSFMHWYQQKPGQPPKLLIYRASNLESGVPARFSGSGSRTDFTLTIDPVEADDAATYYCQQNNEDPWTFGGGTKLEIKR
notes: mouse monoclonal, IgG2a/IgK
On to B1, for which the X geometric mean with human Claudin 3 [1] is 380; with human Claudin 3 [2], 2150; in the assay with human Claudin 3 [3], 120; in the assay with mouse Claudin 3, 1310; in the assay with human Claudin 3 [4], 176; with human Claudin 3 [5], 2300. Further, the X geometric mean in [6] worked out at 59; in assay [7], 36; with human Claudin 3 [8], 869.

B2: CDN16 (antibody, mouse IgG2b, kappa, V domains shown)
VH: B1 VH with T108V
VL: B1 VL
notes: mouse monoclonal, IgG2b/IgK
On to B2, for which the X geometric mean with human Claudin 3 [1] was 361; with human Claudin 3 [2] it was 1980; in the assay with human Claudin 3 [3], 125; with mouse Claudin 3 it was 1270; with human Claudin 3 [4], 125; in the assay with human Claudin 3 [5] it was 2480. Besides, the X geometric mean in assay [6] turned out to be 11; in assay [7], 9; with human Claudin 3 [8], 928.

B3: CDN27 (antibody, V domains shown)
VH: EVQLQQSGPELVKPGASVKISCKASGYSFTGYFMNWVKQSHGKSLEWIGRINPYNGDTFYNQKFKGKATLTVDKSSSTAHMELRSLTSEDSAVYYCARSGDWYFDVWGAGTTVTVSS
VL: DIVLTQSPASLAVSLGQRATISCRASKSVSTSSYSYMHWYQQKPGQPPKLLIKFASYLESGVPARFSGSGSGTDFTLNIHPVEEEDAATYYCQHSREFPRTFGGGTKLEIKR
notes: mouse monoclonal, IgG2a/IgK
Turning to B3, the X geometric mean with human Claudin 3 [1] is 310; in the assay with human Claudin 3 [2], 3340; with human Claudin 3 [3], 308; in [9], 42; in the assay with mouse Claudin 3, 50; with human Claudin 3 [4] it was 202. The X geometric mean with human Claudin 3 [5] came to 2700; in assay [6], 302; in assay [7], 25; with human Claudin 3 [8], 1790.

B4: CDN38 (antibody, V domains shown)
VH: B3 VH with I20M, V93L, D101N, W102Y, Y103V, F104M, V106Y, A109Q, T112S
VL: DIVLTQSPASLAVSLGQSVTISCRASESVEYYGTSLMQWYQQKPGQPPKLLIYGASNVESGVPARFSGSGSGTDFSLNIHPVEEDDIAMYFCQQSRKVPWTFGGGTKLEIKR
Take B4: the X geometric mean amounted to 61 in the assay with human Claudin 3 [1]; 142 with human Claudin 3 [2]; 207 with human Claudin 3 [3]; 7 in assay [9]; 115 with mouse Claudin 3; 63 in the assay with human Claudin 3 [4]. Besides, the X geometric mean was 258 with human Claudin 3 [5], 74 in assay [6], 9 in assay [7] and 215 in the assay with human Claudin 3 [8].

B5: CDN28 (antibody, mouse IgG1, kappa, V domains shown)
VH: EVQLQQSGPELVKPGASVKISCKASGYSFTGYFMNWVKQSHGKSLEWLGRINPYNGDTFYNQKFKGKATLTVDKSSNTAHMELRSLTSEDSAVYYCARGDGYYVTSLAYWGQGTLVTVSA
VL: NIVMTQSPKSMSMSVGERVTLSCKASENVVSYVSWFQQKPEQSPKLLIYGASNRYTGVPDRFTGSGSATDFTLTISSVQAEDLADYYCGQSYSYPLTFGAGTKLELKR
notes: mouse monoclonal, IgG1/IgK
With B5, the X geometric mean with human Claudin 3 [1] was 186; with human Claudin 3 [2], 1430; with human Claudin 3 [3], 275; in [9] it was 12; with human Claudin 3 [4], 175; with human Claudin 3 [5], 1990. Moreover, the X geometric mean came to 27 in [6], 9 in [7] and 1450 with human Claudin 3 [8].

B6: CDN04 (antibody, mouse IgG1, kappa, V domains shown)
VH: EVQLQQSGPELVKPGASMKISCKASGYSFTGYTMNWMKQGHGKNLEWIGLINPYNGGTSYNQKFKDKATLTLDKSSSSAYMELLSLTSEDSAVYYCARGSYGSSYFDYWGQGTTLTVSS
VL: DIVMSQSPSSLAVSVGEKVTMSCKSSQSLLYGSNQKNYLAWYQQKPGQSPKLLIYWASTRESGVPDRFTGSGSGTDFTLTISSVKAEDLAVYYCQQYYNFPYTFGGGTKLEIKR
notes: mouse monoclonal, IgG1/IgK; also called CDN4
In the case of B6, the X geometric mean in the assay with human Claudin 3 [1] worked out at 130; with human Claudin 3 [2] it was 366; with human Claudin 3 [3], 28; in assay [9] it was 11; with mouse Claudin 3, 16; in the assay with human Claudin 3 [4], 47. In addition, the X geometric mean with human Claudin 3 [5] is 667; in assay [6], 14; in assay [7], 9; in the assay with human Claudin 3 [8], 180.
